From US20230382979A1 (ADAPTIVE BIOTECHNOLOGIES, published 2023)

B1: antibody 2564 (antibody, V domains shown)
VH: QVQLVQSGAEVKKPGSSVRVSCKASGGTFISYTFNWVRQAPGQGLEWMGRIIPIFGIVNYAQKFQGRVTIAADKSTSTAYMELSSLRSEDTAMYYCATATVDYDSGEEQSSFDPWGQGTLVTVSS
VL: EIVLTQSPGTLSLSPGERATLSCRASQSVSSSYLAWYQQKAGQTPRLLIYAASSRATGVPDRFSGSGSGTDFTLTISRLEAEDFAVYYCQQSWTFGQGTKVEIK
B2: antibody 1859 (antibody, V domains shown)
VH: EVQLVESGGGLVKPGGSLRLSCAASGFSFNTYTMNWVRQAPGKGLEWVSYISSSSSYKYYSDSVKGRFSVSRDNAKKSLYLQMNGLRAEDTAVYYCARDGYCPNGVCTYYGMDVWGQGTTVTVSL
VL: EIVMTQSPATLSVSPGERATLSCRASQSVSSNLAWYQQKPGQAPRLLIYGASTRATGIPARFSGSGSGTEFTLTISGLQSEDFAVYFCQQYSKWPPAYTFGQGTKLEIK
B3: antibody 1871 (antibody, V domains shown)
VH: EVQLVESGGGLVKPGGSLRLSCVASGFSFSIYSMNWVRQAPGKGLEWVSYISSSSSYKYYADSVKGRFSVSRDNAKNSLYLQLNGLRAEDTAVYYCARDGYCPKGVCTYYGMDVWGQGTTVTVSA
VL: EIVMTQSPATLSVSPGERVTLSCRASQSVRSRLAWFQQKPGQAPRLLIYDASIRATGIPARFSGSGSGTEFTLIISSLQSEDFAVYYCQQYDNWPPAYTFGQGTKLEIK
B4: antibody 1872 (antibody, V domains shown)
VH: EVQLVESGGGLVKPGGSLRLSCAASGFSFSLYTMNWVRQAPGKGLEWVSYISSSSSYRYYADSVKGRFSVSRDNAKNALYLQMNGLRAEDTAVYYCARDGYCPRGVCTYYGMDVWGQGTTVTVSA
VL: EIVMTQSPATLSVSPGERATLSCRASQSVGSRLAWYQQKPGQAPRLLIYDATIRATGIPARFSGSGSGTDFTLTISGLQSEDFAVYYCQRYNNWPPAYTFGQGTKLEIK
B5: antibody 3086 (antibody, V domains shown)
VH: QVQLQESGPGLVKPSETLSLTCTVSGGSISGHYWSWIRQPPGKGLEWIGYIYYSGSTNYNPSLKSRVTISVDTSVNQFSLKLSSVTAADTAVYYCARQEARDAVGNYFFDSWGQGTLVTVSS
VL: QSALTQPASVSGSPGQSITISCSGTSSDIGSYDLVSWYQQHPGKAPKLLIYDVTKRPSGVSHRFSGSKSGNTASLTISGLQGEDEADYYCCSYVHFSTWVFGGGTKLTVL
B6: antibody 4441 (antibody, V domains shown)
VH: EVQLVESGGGLVQPGRSLRLSCAASGLTFEDYAMHWVRQPPGKGLEWVSGVSWNSGTIGYADSVKGRFTISRDNAKNSLYLHMRSLGAEDTAMYYCAKDMGGRFSFFSLENDAFDIWGQGTMVIVSS
VL: SYELTQPPSVSVSPGQTARITCSGDALPKQSTYWYQQKPGQAPVLVIYKDIERPSGIPERFSGSSSGTTVTLTISGVQAEDEADYYCQSADSSDTYVFGTGTKVTVL
B7: antibody 2892 (antibody, V domains shown)
VH: QVQLVQSGAEVKKPGSSVKVSCKASGDAFISYAISWVRQAPGQGLEWMGGIIPIFGTANYAQKFQGRVTISADESTSTAYMELSRLRSEDTAVYYCARGGPEPYGSGSGYTPRYNWFDPWGQGTLVTVSS
VL: QSALTQPRSVSGSPGQSVTISCTGTSSDVGGYNYVSWYQQHPGKAPKFMIYDVNRRPSGVPDRFSGSKSGNTASLTISGLQAEDEADYYCCSYAGTYTWVFGGGTKLTVL
B8: antibody 1814 (antibody, V domains shown)
VH: QVQLQESGPGLVKPSETLSLTCSVSGGSINYYYWSWIRQTPGQGLEWIGFIYSSGTTNYNPSLKSRVTMSKDTAKKQFSLKLTSVTAADSAVYYCARHSRSCTNGVCQTYYYYALDVWGHGTTVTVSS
VL: QSVLTQPPSVSGAPGQRVTISCTGSGSNIGSGYDVHWYQQLPGRAPKLLIYRNRNRPSGVPDRFSGSKSGTSASLAIAGLQSEDEGDYFCQSYDGRLGESAVFGGGTRLTVL
B9: antibody 1815 (antibody, V domains shown)
VH: QVQLQESGPGLVKPSETLSLTCSVSGGSINYYYWSWIRKSPGKGLEWIGFIYSSGTTNYNPSLKSRVSMSIGTSKRQFSLKLSSVTAADSAVYYCARHSRSCTNGVCQTYYYYALDVWGHGTTVTVSS
VL: QSVLTQPPSVSGAPGQRVTISCTGSSSNIGAGYDVHWYQQLPGTAPKLLIYANTHRPSGVPDRFSASKSGTSASLAIAGLQAEDEGDYYCQSYDGSLSESAVFGGGTRLTVL
B10: antibody 2794 (antibody, V domains shown)
VH: QVQLVQSGAEVKKPGSSLKVSCKASGGTFNNFAISWVRQAPGQGPEWMGRINPILSAAKYAQKFQGRLTITADKSTTTAYMELSSLRSEDTAVYYCAPTGTGESWWFDPWGQGTLVTVSS
VL: QSVLTQPPSASGTPGQRVTISCSGSSSNIGTNYVYWYQQLPGTAPKVLIYGNNQRPSGVPDRFSGSKSGSSASLAISGLRSEDEADYYCAAWDDSLSGPVFGGGTKLTVL
B11: antibody 4042 (antibody, V domains shown)
VH: QITLKESGPTLVKPTQTLTLTCTFSGFSLSSGGVGVGWIRQPPGKALEWLALIYWDDDKRYRPSLKSRLTITRDTSTNQVVLTMTNMDPVDTATYFCARHQIATVFDHWGQGTLVTVSS
VL: QSALTQPASVSGSPGQSITISCTGTSSDVGGYNYVSWYQQHPGKAPKLMIYEVSNRPSGVSSRFSGSKSGNTASLTISGLQAEDEADYYCSSYTRSSPLVAFGGGTKVTVL
B12: antibody 980 (antibody, V domains shown)
VH: QVQLVESGGGVVQPGRSLRLSCAASGFTFSRYGMHWVRQAPGKGLEWVALISSGGSNKYYADSVKGRFTISRDNSKNTLYLEMNSLRAEDTAVYYCAKDAIYDYIWGAYRENWFDPWGQGTLVTVSS
VL: DIQMTQSPSSLSASVGDRVTITCRASQSISNYLNWYQQKPGKAPNLLIYAASSLQSGVPSRFSGSGSGTDFTLTISSLQPEDFATYYCQQTSSPPLTFGQGTKVEIK

Assays:
[1] = biological target: SARS-CoV-2 spike protein on live virus, B1.351 (beta variant) (SARS-CoV-2, B1.351); assay: cell-based or functional assay
[2] = biological target: T1, SARS-CoV-2 spike protein on live virus, strain USA-WA1/2020 (SARS-CoV-2, WA01/2020 strain, UniProt P0DTC2 14-1273); assay: cell-based or functional assay
[3] = biological target: SARS-CoV-2 spike protein, B1.351 (beta variant), borne on lentiviral pseudovirus (SARS-CoV-2, B1.351); assay: cell-based or functional assay
[4] = biological target: SARS-CoV-2 spike protein, B1.1.7 (alpha variant), borne on lentiviral pseudovirus (SARS-CoV-2, B1.1.7); assay: cell-based or functional assay
[5] = biological target: T1, SARS-CoV-2 spike protein on live virus, …; assay: cell-based or functional assay; remark: listed apart in the source
[6] = biological target: T2, Receptor-binding domain (RBD) of the SARS-CoV-2 spike protein, WA01/2020 strain (SARS-CoV-2, WA01/2020 strain, UniProt P0DTC2 319-541); assay: SPR (Biacore 8K), antigen immobilized, antibody injected
[7] = biological target: T2, Receptor-binding domain (RBD) of the …; assay: ELISA, antibody blocks RBD binding to human ACE2
[8] = biological target: T2, Receptor-binding domain (RBD) of the …; assay: dose-response ELISA on coated antigen
[9] = biological target: T2, Receptor-binding domain (RBD) of the …; assay: ELISA screening, antibody concentration not given

| Binder | Live Neut, B1.351 IC50 (pM) [1] [pM] | Live Neut, WA1/2020 IC50 (pM) [2] [pM] | Pseudo Neut, B1.351 IC50 (pM) [3] [pM] | Pseudo Neut, B1.1.7 IC50 (pM) [4] [pM] | IC50, live virus micro-neutralization WA1/2020 [5] [nM] | Kd [6] [nM] | IC50 [7] [nM] | EC50 [8] [nM] | binding result [9] |
| --- | --- | --- | --- | --- | --- | --- | --- | --- | --- |
| B1 | 121 | 7 | 196 | 33 | 0.0226 | 0.012 | 0.776 | 0.023 | – |
| B2 | – | – | 73 | 230 | – | – | – | – | no binding (tested: not printed) |
| B3 | – | – | 208 | 110 | – | – | – | – | no binding (tested: not printed) |
| B4 | – | – | 75 | 130 | – | – | – | – | no binding (tested: not printed) |
| B5 | 210 | 7 | 115 | 71 | 0.062 | 0.242 | 0.562 | 0.03 | – |
| B6 | – | 85 | 2320 | ~13 | 0.058 | 0.022 | 1.02 | 0.05 | – |
| B7 | 403 | 10 | 125 | ~13 | 0.082 | 0.005 | 0.762 | 0.089 | – |
| B8 | – | – | 32 | 237 | – | – | – | – | no binding (tested: not printed) |
| B9 | – | – | 345 | – | – | – | – | – | no binding (tested: not printed) |
| B10 | – | 17 | 428 | 148 | 0.055 | 0.232 | 0.137 | 0.022 | – |
| B11 | 140 | 15 | 948 | 200 | 0.039 | 0.036 | 1.09 | 0.021 | – |
| B12 | 83 | 25 | 1740 | 1670 | 0.0082 | 0.87 | 0.86 | 0.023 | – |
